Assay results from the supplement of paper PMC10567573.

B1: WDR41 (parent)
chain: WTMQAYERNFWDPSPQLDTQQEIK
B2: GOLPH3 (parent)
chain: FAPLLDEQYDLATKRVRQLLDLDP

Variants of: B1
Assay: protein stability index of a GFP-peptide fusion (GPS, HEK-293T) (PSI 1-6); higher = more stable
Settings: c terminus: a fixed tail appended
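Also: lentivirally expressed fusions sorted by FACS into six bins by GFP to DsRed ratio, PSI derived from sequencing read proportions per bin multiplied by bin number.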

Question: With Y6C as the variant, how does the protein stability index read?
Answer: 2.87

Question: With Y6H as the variant, how does the protein stability index read?
Answer: 1.92

Question: For Y6V, which protein stability index is on record?
Answer: 2.79

Question: With Q4G as the variant, how does the protein stability index read?
Answer: 3.34

Question: For Q4N, which protein stability index is on record?
Answer: 1.67

Question: With Q4T as the variant, how does the protein stability index read?
Answer: 1.95

Question: For Q4M, which protein stability index is on record?
Answer: 2.92

Question: With K24A as the variant, how does the protein stability index read?
Answer: 2.47

Question: For K24W, which protein stability index is on record?
Answer: 1.46

Question: For K24P, which protein stability index is on record?
Answer: 2.09

Question: Which protein stability index does the source give for K24H here?
Answer: 2.29

Question: Which protein stability index does the source give for K24T here?
Answer: 2.63

Question: Which protein stability index does the source give for S14E here?
Answer: 3.22

Question: Which protein stability index does the source give for S14G here?
Answer: 3.05

Question: For S14V, which protein stability index is on record?
Answer: 2.58

Question: Which protein stability index does the source give for S14P here?
Answer: 3.16

Question: For S14C, which protein stability index is on record?
Answer: 2.59

Question: Which protein stability index does the source give for S14L here?
Answer: 2.7

Question: For W11A, which protein stability index is on record?
Answer: 4.26

Question: For W11Q, which protein stability index is on record?
Answer: 3.93

Question: With W11G as the variant, how does the protein stability index read?
Answer: 3.94

Question: With W11N as the variant, how does the protein stability index read?
Answer: 4.21

Question: Which protein stability index does the source give for L17V here?
Answer: 2.75

Question: For L17W, which protein stability index is on record?
Answer: 2.37

Question: Which protein stability index does the source give for Q16K here?
Answer: 2.42

Question: Which protein stability index does the source give for Q16A here?
Answer: 2.24

Question: With Q16Y as the variant, how does the protein stability index read?
Answer: 1.68

Question: With W1N as the variant, how does the protein stability index read?
Answer: 4.46

Question: Which protein stability index does the source give for W1G here?
Answer: 4.73

Question: Which protein stability index does the source give for W1L here?
Answer: 3.9

Question: For P15S, which protein stability index is on record?
Answer: 2.02

Question: Which protein stability index does the source give for P15R here?
Answer: 1.99

Question: With P15W as the variant, how does the protein stability index read?
Answer: 1.75

Question: With P15C as the variant, how does the protein stability index read?
Answer: 2.3

Question: With P15Y as the variant, how does the protein stability index read?
Answer: 1.81

Question: For P15I, which protein stability index is on record?
Answer: 2.15

Question: With Q21V as the variant, how does the protein stability index read?
Answer: 2.51

Question: For Q21N, which protein stability index is on record?
Answer: 2.71

Question: With E22F as the variant, how does the protein stability index read?
Answer: 2.11

Question: Which protein stability index does the source give for E22I here?
Answer: 2.81

Question: With E22G as the variant, how does the protein stability index read?
Answer: 2.34

Question: Which protein stability index does the source give for E22H here?
Answer: 1.8

Question: Which protein stability index does the source give for E22Q here?
Answer: 2.1

Question: Which protein stability index does the source give for Q20V here?
Answer: 2.34

Question: For Q20F, which protein stability index is on record?
Answer: 1.99

Question: For Q20E, which protein stability index is on record?
Answer: 2.35

Question: Which protein stability index does the source give for Q20C here?
Answer: 2.75

Question: For T2E, which protein stability index is on record?
Answer: 3.75

Question: For T2H, which protein stability index is on record?
Answer: 1.89

Question: For T2I, which protein stability index is on record?
Answer: 1.62

Question: For F10E, which protein stability index is on record?
Answer: 3.92

Question: Which protein stability index does the source give for F10Q here?
Answer: 4.61

Question: For F10Y, which protein stability index is on record?
Answer: 3.38

Question: With F10H as the variant, how does the protein stability index read?
Answer: 4.14

Question: With F10L as the variant, how does the protein stability index read?
Answer: 3.95

Question: With P13G as the variant, how does the protein stability index read?
Answer: 2.1

Question: With P13M as the variant, how does the protein stability index read?
Answer: 2.34

Question: Which protein stability index does the source give for P13Y here?
Answer: 2.26

Question: With P13F as the variant, how does the protein stability index read?
Answer: 1.82

Question: Which protein stability index does the source give for E7L here?
Answer: 3.28

Question: Which protein stability index does the source give for M3H here?
Answer: 2.63

Question: Which protein stability index does the source give for M3V here?
Answer: 3.16

Question: For M3A, which protein stability index is on record?
Answer: 2.44

Question: With M3G as the variant, how does the protein stability index read?
Answer: 2.46

Question: For D18I, which protein stability index is on record?
Answer: 2.28

Question: With D18S as the variant, how does the protein stability index read?
Answer: 2.23

Question: Which protein stability index does the source give for R8C here?
Answer: 2.59

Question: For N9P, which protein stability index is on record?
Answer: 2.71

Question: With N9T as the variant, how does the protein stability index read?
Answer: 2.52

Question: For N9W, which protein stability index is on record?
Answer: 1.59

Question: With T19E as the variant, how does the protein stability index read?
Answer: 2.37

Question: With T19K as the variant, how does the protein stability index read?
Answer: 2.69

Question: For T19C, which protein stability index is on record?
Answer: 2.19

Question: With D12N as the variant, how does the protein stability index read?
Answer: 3.51

Question: For D12R, which protein stability index is on record?
Answer: 3.92

Question: With D12E as the variant, how does the protein stability index read?
Answer: 2.31

Question: Which protein stability index does the source give for D12Q here?
Answer: 1.37

Question: Which protein stability index does the source give for A5P here?
Answer: 2.49

Question: Which protein stability index does the source give for I23S here?
Answer: 3.27

Question: With I23K as the variant, how does the protein stability index read?
Answer: 3.93

Question: For I23Q, which protein stability index is on record?
Answer: 3.15

Question: Which protein stability index does the source give for I23H here?
Answer: 2.75

Variants of: B2
Assay: as above
Settings: c terminus: a fixed tail appended

Question: With F1V as the variant, how does the protein stability index read?
Answer: 3.06

Question: For F1Q, which protein stability index is on record?
Answer: 4.03

Question: With F1Y as the variant, how does the protein stability index read?
Answer: 2.39

Question: For P24W, which protein stability index is on record?
Answer: 1.29

Question: With P24I as the variant, how does the protein stability index read?
Answer: 1.38

Question: For P24F, which protein stability index is on record?
Answer: 3.43

Question: With P24Y as the variant, how does the protein stability index read?
Answer: 1.45

Question: With P24R as the variant, how does the protein stability index read?
Answer: 2.28

Question: For P24A, which protein stability index is on record?
Answer: 1.81

Question: Which protein stability index does the source give for P24L here?
Answer: 2.11

Question: Which protein stability index does the source give for R17P here?
Answer: 2.45

Question: With R17M as the variant, how does the protein stability index read?
Answer: 2.27

Question: Which protein stability index does the source give for R17V here?
Answer: 2.03

Question: With R17G as the variant, how does the protein stability index read?
Answer: 2.45

Question: For Q8P, which protein stability index is on record?
Answer: 1.74

Question: With Q8T as the variant, how does the protein stability index read?
Answer: 2.64

Question: For Q8H, which protein stability index is on record?
Answer: 2.04

Question: With Q8L as the variant, how does the protein stability index read?
Answer: 1.95

Question: For Q8A, which protein stability index is on record?
Answer: 2.29

Question: With K14N as the variant, how does the protein stability index read?
Answer: 2.02

Question: For K14G, which protein stability index is on record?
Answer: 1.99

Question: For K14L, which protein stability index is on record?
Answer: 3.14

Question: Which protein stability index does the source give for A12S here?
Answer: 2.36

Question: With A12L as the variant, how does the protein stability index read?
Answer: 1.82

Question: Which protein stability index does the source give for A12D here?
Answer: 2.72

Question: For A12H, which protein stability index is on record?
Answer: 2.43

Question: Which protein stability index does the source give for L11E here?
Answer: 3.48

Question: For Q18D, which protein stability index is on record?
Answer: 2.43

Question: With Q18P as the variant, how does the protein stability index read?
Answer: 2.04

Question: With Q18A as the variant, how does the protein stability index read?
Answer: 2.52

Question: For D23A, which protein stability index is on record?
Answer: 2.07

Question: Which protein stability index does the source give for D23K here?
Answer: 1.78

Question: Which protein stability index does the source give for A2N here?
Answer: 3.01

Question: Which protein stability index does the source give for A2F here?
Answer: 2.03

Question: For A2D, which protein stability index is on record?
Answer: 3.71

Question: Which protein stability index does the source give for A2V here?
Answer: 2.11

Question: Which protein stability index does the source give for A2Y here?
Answer: 2.43

Question: Which protein stability index does the source give for L19A here?
Answer: 2.7

Question: With L19S as the variant, how does the protein stability index read?
Answer: 2.21

Question: With L19W as the variant, how does the protein stability index read?
Answer: 2.27

Question: For R15Q, which protein stability index is on record?
Answer: 2.11

Question: For R15E, which protein stability index is on record?
Answer: 2.43

Question: For R15L, which protein stability index is on record?
Answer: 2.24

Question: For R15T, which protein stability index is on record?
Answer: 1.76

Question: Which protein stability index does the source give for R15F here?
Answer: 2.06

Question: For R15S, which protein stability index is on record?
Answer: 1.8

Question: For Y9A, which protein stability index is on record?
Answer: 2.9

Question: With Y9E as the variant, how does the protein stability index read?
Answer: 3.5

Question: For Y9V, which protein stability index is on record?
Answer: 1.24

Question: Which protein stability index does the source give for Y9D here?
Answer: 2.98

Question: Which protein stability index does the source give for Y9M here?
Answer: 2.46

Question: With E7P as the variant, how does the protein stability index read?
Answer: 2.12

Question: For E7N, which protein stability index is on record?
Answer: 1.91

Question: For E7F, which protein stability index is on record?
Answer: 1.91

Question: Which protein stability index does the source give for E7C here?
Answer: 1.98

Question: For V16E, which protein stability index is on record?
Answer: 3.32

Question: With V16L as the variant, how does the protein stability index read?
Answer: 1.51

Question: For V16S, which protein stability index is on record?
Answer: 1.74

Question: For V16M, which protein stability index is on record?
Answer: 1.96

Question: With V16G as the variant, how does the protein stability index read?
Answer: 2.75

Question: For L20I, which protein stability index is on record?
Answer: 2.59

Question: With L20P as the variant, how does the protein stability index read?
Answer: 3.2

Question: Which protein stability index does the source give for L20A here?
Answer: 2.92

Question: For L20Y, which protein stability index is on record?
Answer: 1.94

Question: For L20N, which protein stability index is on record?
Answer: 2.25

Question: With L20F as the variant, how does the protein stability index read?
Answer: 1.83

Question: Which protein stability index does the source give for L20M here?
Answer: 2.3

Question: With L4S as the variant, how does the protein stability index read?
Answer: 1.75

Question: For L4A, which protein stability index is on record?
Answer: 1.81

Question: Which protein stability index does the source give for P3A here?
Answer: 2.34

Question: Which protein stability index does the source give for L22W here?
Answer: 1.83

Question: With L22Q as the variant, how does the protein stability index read?
Answer: 2.5

Question: For L22T, which protein stability index is on record?
Answer: 2.21

Question: With L22G as the variant, how does the protein stability index read?
Answer: 2.58

Question: For T13I, which protein stability index is on record?
Answer: 1.6

Question: Which protein stability index does the source give for T13Y here?
Answer: 1.28

Question: For T13V, which protein stability index is on record?
Answer: 2.28

Question: For T13F, which protein stability index is on record?
Answer: 1.96

Question: For T13A, which protein stability index is on record?
Answer: 2.41

Question: For D21S, which protein stability index is on record?
Answer: 1.95

Question: Which protein stability index does the source give for D21K here?
Answer: 1.64

Question: Which protein stability index does the source give for D21T here?
Answer: 1.9

Question: With D6Y as the variant, how does the protein stability index read?
Answer: 2.03

Question: With D6P as the variant, how does the protein stability index read?
Answer: 2.81

Question: For D10G, which protein stability index is on record?
Answer: 2.15
